{"source": "paper PMC9813358", "about": "“Insights into the GSDMB-mediated cellular lysis and its targeting by IpaH7.8” (Nature Communications, 2023)", "parents": {"B1": {"name": "human GSDMD [human] / IpaH7.8 protein (residues 23–565) [Shigella flexneri] (parent)", "chain 1": "MGSAFERVVRRVVQELDHGGEFIPVTSLQSSTGFQPYCLVVRKPSSSWFWKPRYKCVNLSIKDILEPDAAEPDVQRGRSFHFYDAMDGQIQGSVELAAPGQAKIAGGAAVSDSSSTSMNVYSLSVDPNTWQTLLHERHLRQPEHKVLQQLRSRGDNVYVVTEVLQTQKEVEVTRTHKREGSGRFSLPGATCLQGEGQGHLSQKKTVTIPSGSTLAFRVAQLVIDSDLDVLLFPDKKQRTFQPPATGHKRSTSEGAWPQLPSGLSMMRCLHNFLTDGVPAEGAFTEDFQGLRAEVETISKELELLDRELCQLLLEGLEGVLRDQLALRALEEALEQGQSLGPVEPLDGPAGAVLECLVLSSGMLVPELAIPVVYLLGALTMLSETQHKLLAEALESQTLLGPLELVGSLLEQSAPWQERSTMSLPPGLLGNSWGEGAPAWVLLDECGLELGEDTPHVCWEPQAQGRMCALYASLALLSGLSQEPH", "chain 2": "SNEHYLRILTEWEKNSSPGEERGIAFNRLSQCFQNQEAVLNLSDLNLTSLPELPKHISALIVENNKLTSLPKLPAFLKELNADNNRLSVIPELPESLTTLSVRSNQLENLPVLPNHLTSLFVENNRLYNLPALPEKLKFLHVYYNRLTTLPDLPDKLEILCAQRNNLVTFPQFSDRNNIRQKEYYFHFNQITTLPESFSQLDSSYRINISGNPLSTRVLQSLQRLTSSPDYHGPQIYFSMSDGQQNTLHRPLADAVTAWFPENKQSDVSQIWHAFEHEEHANTFSAFLDRLSDTVSARNTSGFREQVAAWLEKLSASAELRQQSFAVAADATESCEDRVALTWNNLRKTLLVHQASEGLFDNDTGALLSLGREMFRLEILEDIARDKVRTLHFVDEIEVYLAFQTMLAEKLQLSTAVKEMRFYGVSGVTANDLRTAEAMVRSREENEFTDWFSLWGPWHAVLKRTEADRWAQAEEQKYEMLENEYSQRVADRLKASGLSGDADAEREAGAQVMRETEQQIYRQLTDEVLALRLSENGSRLHHS"}}}
{"variants_of": "B1", "assay": "ITC", "conditions": "with IpaH7.8 protein (residues 23–565) [Shigella flexneri]", "units": {"Kd": "nM"}}
{"variant": "chain 1 S124R", "Kd": 230}
